Experimental data: patent US11179342B2, “Peptide coacervates and methods of use thereof” (NANYANG TECHNOLOGICAL UNIVERSITY, priority 2018, dated 2021)
“Also recorded” adds a separate entry of the source.

B1: DgHBP-1: recombinant histidine-rich beak protein 1 of Humboldt squid (Dosidicus gigas) (protein)
chain: QLYGAPAVGGVVENAVNAAESGAAATHDAQGAYAEADTAGVLDVNHAEHHDGVHDASGYGFGGLAGHGGFAGHGLYGPGFAGHGLLGAGYAGLGLHGAGFAGHGLHGAGFAGHGLYGAGFAGHGLHGFAGHGLYGAGFAGHGLGLGGLHGALGHGALAHY
modifications: Dosidicus gigas
B2: V7-N: N-terminus fragment of DgHBP-1 Lys mutant after trypsin cleavage (protein)
chain: MQLYGAPAVGGVVENAVNAAESGAAATHDAQGAYAEADTAGVLDVNHAEHHDGVHDASGYGFGGLAGHGGFAGHGLYGPGFAGHGLLGAGYAGLGLHGAGFAGHGLHGAGFAGHGLYGAGFAK
modifications: HBP-1 derived peptide V7-N
notes: N-terminus fragment of DgHBP-1 Lys mutant after trypsin cleavage
B3: V5-N: N-terminus fragment of DgHBP-1 Lys mutant after trypsin cleavage (protein)
chain: MQLYGAPAVGGVVENAVNAAESGAAATHDAQGAYAEADTAGVLDVNHAEHHDGVHDASGYGFGGLAGHGGFAGHGLYGPGFAGHGLLGAGYAGLGLHGAGFAGHGLHGAGFAK
modifications: HBP-1 derived peptide V5-N
notes: as for B2
B4: V2-C: DgHBP-1 variant lacking the first 31 amino acids of the repetitive region, truncated at G98 (protein)
chain: MHHHHHHSSGVDLGTENLYFQSMMGAGFAGHGLHGAGFAGHGLYGAGFAGHGLHGFAGHGLYGAGFAGHGLGLGGLHGALGHGALAHY
modifications: HBP-1 derived peptide V2-C
notes: DgHBP-1 variant lacking the first 31 amino acids of the repetitive region, truncated at G98
B5: V6-N: N-terminus fragment of DgHBP-1 Lys mutant after trypsin cleavage (protein)
chain: MQLYGAPAVGGVVENAVNAAESGAAATHDAQGAYAEADTAGVLDVNHAEHHDGVHDASGYGFGGLAGHGGFAGHGLYGPGFAGHGLLGAGYAGLGLHGAGFAGHGLHGAGFAGHGLYK
modifications: HBP-1 derived peptide V6-N
notes: as for B2
B6: C-terminal (A82-R172): DgHBP-2 C-terminal trypsin fragment containing the whole repetitive region (protein)
chain: AAQGANAVHNDAAQSHSALAAANTFGHGHAPYAAYGHGVYGHGPYGHGPYGHGLYGHGLYGHGPYGHGLYGHGAFGHGLNAYAPLVGHGLR
modifications: C-terminal fargment of HBP-2
notes: DgHBP-2 C-terminal trypsin fragment containing the whole repetitive region
B7: V3-N: N-terminus fragment of DgHBP-1 Lys mutant after trypsin cleavage (protein)
chain: MQLYGAPAVGGVVENAVNAAESGAAATHDAQGAYAEADTAGVLDVNHAEHHDGVHDASGYGFGGLAGHGGFAGHGLYGPGFAGHGLLGAGYAGLGLHGAGFAK
modifications: HBP-1 derived peptide V3-N
notes: as for B2
B8: N-terminal (M1-R81) fragment: DgHBP-2 N-terminal trypsin fragment lacking the modular repeats (protein)
chain: MQFFGAGPFNTAHHSAVSDAAAAHHDAAGEYAQNAATGLLDTHHNENHDMTHDLANGYGLHEHDEQHHGLADGLHQEYAAR
modifications: N-terminal fragment of HBP-2
notes: DgHBP-2 N-terminal trypsin fragment lacking the modular repeats
B9: V4-N: N-terminus fragment of DgHBP-1 Lys mutant after trypsin cleavage (protein)
chain: MQLYGAPAVGGVVENAVNAAESGAAATHDAQGAYAEADTAGVLDVNHAEHHDGVHDASGYGFGGLAGHGGFAGHGLYGPGFAGHGLLGAGYAGLGLHK
modifications: HBP-1 derived peptide V4-N
notes: as for B2
B10: V1-C: DgHBP-1 mutant lacking the first 66 amino acids, containing all C-terminal modular repeats (protein)
chain: MHHHHHHSSGVDLGTENLYFQSMMGHGGFAGHGLYGPGFAGHGLLGAGYAGLGLHGAGFAGHGLHGAGFAGHGLYGAGFAGHGLHGFAGHGLYGAGFAGHGLGLGGLHGALGHGALAHY
modifications: HBP-1 derived peptide V1-C
notes: DgHBP-1 mutant lacking the first 66 amino acids, containing all C-terminal modular repeats

Key:
Type in all cases: physicochemical
[1] = Liquid-liquid phase separation by optical microscopy; details: for ability to undergo LLPS / phase separation: various pH and salt (NaCl) concentration; for morphology of the separated phase: optical micrographs after LLPS; for range of conditions allowing LLPS: compared among variants; for highest pH at which LLPS was observed: N-variants, high salt; for minimal peptide concentration for LLPS at the highest pH: V7-N at pH 8, V6-N at pH 7, high salt
Experimental: In Example 2 below, phase separation behavior of protein variants and peptides was studied using a Zeiss Axio Scope A1 microscope (Carl Zeiss Pte Ltd., Germany) in the reflection mode, with differential interference contrast (DIC) filters. Images were taken with an AxioCam MRc 5 camera under the control of AxioVision software.
Liquid-liquid phase separation properties of protein variants and peptides at different buffer conditions were assessed using the method described in (Tan et al, Nat. Chem. Biol. 11, 488-495). Briefly, protein/peptide stock solution (10 mg/mL in 10 mM acetic acid, pH 3.3) was added to a buffer solution in a volume ratio 1:5 (protein/peptide stock:buffer). The mixture was then pipetted onto a microscopy glass slide and imaged using the optical microscope.

[2] = Dynamic light scattering of GY-23 peptide
Experimental: FIGS. 30A-30C. SAXS and DLS of GY-23 peptide. (A) SAXS experimental curves of the peptide before and after coacervation. After LLPS, the dilute and coacervate-rich phases were measured following centrifugation. The q-3 power-law region of the scattering data is highlighted, with the black line a guide for the eye. The calculated fit for the peptide assemblies from the IFT method is also presented as a continuous red line. (B) Corresponding p(r) profile calculated from the SAXS data in (A) using Eq. 1 (materials and methods). (C) Hydrodynamic diameter (DH) measured by DLS of GY-23 in acetic acid (pH 3.3) and after coacervation (pH 7.0).
FIGS. 34A-34B Correlation functions of the DLS measurements of GY-23 peptide before and after coacervation (FIG. 33C) showing the intensity correlation function, C(τ) vs. the correlation time, τ. (A) Sample before coacervation (10 mM in acetic acid, pH 3.3). The curve with a single decay at short correlation times represents a monomodal distribution of rather small particles in the nanometer range. (B) Sample after LLPS (coacervation buffer, pH 7.0).

[3] = Circular dichroism spectroscopy of insulin
Excerpt: Circular dichroism (CD) spectra was collected using a quartz cuvette of 0.2/0.5 mm optical pathlength. Data collection was done on AVIV 420 Circular Dichroism spectrometer with the following parameters: average of three scans per experiment between wavelength range from 190 to 250 nm, 1.0 nm wavelength steps with 1.00 nm bandwidth and 0.1 s averaging time. Each experiment was repeated for 3 times and averaged to obtain the final spectrum. The final spectrum was then smoothed and plotted using originPro9.1.

| Molecule | ability to undergo LLPS / phase separation [1] | morphology of the separated phase [1] | also measured |
| --- | --- | --- | --- |
| GA-25: synthetic peptide of HBP-1 repeats harboring only one GHGLY motif (GAGFAGHGLHGAGFAGHGLYGAGFA; HBP-1 derived peptide GA-25) | remained in solution in all tested buffer conditions | – | – |
| GAGFA [pentapeptide] | no phase separation was observed | – | – |
| GH-25: synthetic peptide of HBP-1 repeats harboring only one GHGLY motif (GHGLHGAGFAGHGLYGAGFAGHGLH; HBP-1 derived peptide GH-25) | remained in solution in all tested buffer conditions | – | – |
| GHGLYGAGFAGAGFAGAGFAGHGLY (GHGLYGAGFAGAGFAGAGFAGHGLY) [GY-25-V1] | – | dense and compact hydrogel | – |
| GHGLY GAGFA GHGLH GFA GHGLY (GHGLYGAGFAGHGLHGFAGHGLY) [GY-23] | phase-separated | coacervate micro-droplets suspended in solution as well as a dense hydrogel-like structure; also recorded: micro-droplets as well as hydrogel-like condensed coacervates | hydrodynamic diameter (DH) ([2]; acetic acid (pH 3.3), before LLPS): ca. 8 nm; hydrodynamic diameter (DH) ([2]; pH 7.0, initiation of LLPS): around 50 nm |
| GHGLYGHGLHGHGLHGHGLHGHGLY (GHGLYGHGLHGHGLHGHGLHGHGLY) [GY-25-V2] | – | only formed micro-droplets | – |
| GHGLY GHGLY GHGLY GHGLY (GHGLYGHGLYGHGLYGHGLY) [GY-20] | Phase separation was observed | only formed micro-droplets | – |
| GHGLY [pentapeptide] | no phase separation was observed | – | – |
| GY-15-V1: 3 copies of the GHGLY motif arranged in tandem (GHGLYGHGLYGHGLY) | no phase separation was observed | – | – |
| GY-15-V2: GAGFA motif flanked by GHGLY (GHGLYGAGFAGHGLY; Artificial peptide GY-15-V2) | no phase separation was observed | – | – |
| V3-C: C-terminus fragment of DgHBP-1 Lys mutant after trypsin cleavage, longest section of repetitive region (GHGLHGAGFAGHGLYGAGFAGHGLHGFAGHGLYGAGFAGHGLGLGGLHGALGHGALAHY; HBP-1 derived peptide V3-C) | – | – | range of conditions allowing LLPS [1]: broadest pH range among all tested variants; lowest protein concentration of phase separation ([1]; pH 8): 30 µM |
| insulin [reference compound] | – | – | CD: secondary structure ([3]; pH 5.5 to 7.5): not disrupted |
| released insulin: insulin released from dissociated coacervates | – | – | CD: characteristic minima of α-helices at 208 and 222 nm ([3]; after coacervation and release): still visible |
| B1 | – | – | pH range of LLPS ([1]; at minimal concentration): 6.5-7.5; minimal concentration for LLPS ([1]; pH range 6.5-7.5): 20 to 30 µM |
| B2 | only at high salt concentrations | hydrogels | highest pH at which LLPS was observed [1]: 8; minimal peptide concentration for LLPS at the highest pH [1]: at least 500 μM; range of conditions allowing LLPS [1]: over a wider range of conditions |
| B3 | only at high salt concentrations | hydrogels | highest pH at which LLPS was observed [1]: ≤ 6; range of conditions allowing LLPS [1]: only under narrow conditions |
| B4 | formed coacervates | – | protein concentration required to form coacervates [1]: ca. 30 μmol; ability to undergo LLPS / phase separation ([1]; listed as V-2C): underwent LLPS in the same way as full-length protein |
| B5 | only at high salt concentrations | hydrogels | highest pH at which LLPS was observed [1]: 7; minimal peptide concentration for LLPS at the highest pH [1]: 400 μM; range of conditions allowing LLPS [1]: over a wider range of conditions |
| B6 | phase-separated into coacervates | – | – |
| B7 | could not be induced | – | – |
| B8 | only the C-terminal fragment phase-separated | – | – |
| B9 | could not be induced | – | – |
| B10 | underwent phase separation and formed coacervates; also recorded: underwent LLPS in the same way as full-length protein | – | – |
